From patent US20230331823A1 (HENRY M JACKSON FOUNDATION FOR THE ADVANCEMENT OF MILITARY …, published 2023) come the findings set out here.

In assay [1] the target is T1, SARS-CoV-2 WA-1 Spike on pseudovirions (SARS-CoV-2, UniProt P0DTC2 14-1255). As to the kind of experiment: cell-based or functional assay.
For assay [2], the target named is T1, SARS-CoV-2 WA-1 Spike on pseudovirions. As to the kind of experiment: cell-based or functional assay. The source holds these as a separate data set.
Assay [3] concerns the target SARS-CoV-2 RBD (pCoV08, RBD-His6) (SARS-CoV-2 (Wuhan-Hu-1), UniProt P0DTC2 331-527). As to the kind of experiment: Table 1, column Specificity.
For another assay, the target named is T2, SARS-CoV-2 NTD WA-1 (SARS-CoV-2, UniProt P0DTC2 14-303).
T2 construct: domain: NTD
Briefly: BLI, ShAb-Fc on AHC probe, NTD analyte.

Where a chain is given by its changes, count along the chain named. Read-outs that look alike come from different tables or passages of the source.

B1: ShAb02-Foldon (ShAb02 VNAR-KESlinker-Foldon-3c-His8-Strep) (VNAR)
VNAR: ARVDQTPQTITKETGESLTINCVLRDSNCALASTDWYRKKSGSTNEESISKGGRYVETVNSGSKSFSLRINDLTVEDSGTYRCNAWDSWETRQLKCDYDVYGGGTVVTVNK
As for B1, the “pseudovirus neutralization IC50” value was 0.289 µg/mL in assay [1] and under 0.02 µg/mL in assay [2]. Besides, the “pseudovirus neutralization IC80” value in assay [1] came to 1.77 µg/mL.

B2: ShAb31 (MoB5-1D4) single domain VNAR (VNAR)
VNAR: ARVDQTPQTITKETGESLTINCVLRDSNCGVASTDWYRKKSGSTNEESISKGGRYVETVNSRSKSFSLRINDLTVEDSGTYRCNAWDRWETRQLNCDYDVYGGGTVVTVN
On to B2, for which the binding result in assay [3] is “binds”.

B3: ShAb01H06K (ShAb01Hole-06Knob) (bispecific antibody, V domains shown)
V domain 1: ARVDQTPRSVTKETGESLTINCVLRDSNCALSSTHWYRKKSGSTNEERILQGRRYVETVNSGSKSFSLRINDLRVEDSGTYRCKVYWGNSWQDKFCPGLGSYEYGDGTAVTVNS
V domain 2: ARVDQTPRSVTKETGESLTINCVLRDASYALGSTCWYRKKSGSTNEESISKGGRYVETVNSGSKSFSLRINDLTVEDGGTYRCGVGRGLGVGCDYPLCSYSYAACGDGTAVTVNS
For B3, binding with SARS-CoV-2 NTD WA-1 was characterised by a dissociation constant (Kd) of 104 nM. In assay [1], the “pseudovirus neutralization IC50” value stood at 0.065 µg/mL and the “pseudovirus neutralization IC80” value amounted to 0.763 µg/mL.

B4: ShAb01-Foldon (ShAb01 VNAR-KESlinker-Foldon-3c-His8-Strep) (VNAR)
VNAR: B3 V domain 1 with S114K
Take B4: in assay [1], the “pseudovirus neutralization IC50” value came out at 0.309 µg/mL and the “pseudovirus neutralization IC80” value was 0.488 µg/mL. Further, the “pseudovirus neutralization IC50” value in assay [2] is 0.31 µg/mL.

B5: ShAb06H02K (ShAb06Hole-02Knob) (bispecific antibody, V domains shown)
V domain 1: B3 V domain 2
V domain 2: B1 VNAR with K111S
In the assay with SARS-CoV-2 NTD WA-1, B5 came in with a dissociation constant Kd of 74.6 nM, a koff of 0.0085 s⁻¹ and a kon of 114000 M⁻¹ s⁻¹. For the same molecule, in assay [1], the “pseudovirus neutralization IC50” value was found to be 0.03 µg/mL and the “pseudovirus neutralization IC80” value came out at 0.206 µg/mL.
